Assay: soluble on expression in E. coli; label from the status in PepcDB or PDB records

Sequence | soluble on expression in E. coli
ERFQLLMTQIGLQDVTTYEEFTKDAKIEKLVADKKNKTWQFHLHVPQIFPAALFHMMDVGMKRAFSQIAETEMQIVPENQTINETLIQEYWNLIVEPIGKQSPMIGKLLMEQKPTFKEPHFIEVAVHNDMEEATIQQRFQAKIIEN | not soluble
MSLHLNDQWVLCAPTDNFENKKEIFFTPQGAFGTGLHETTQDILKFIVEEDFEGKSLLDLGTGSGILSIAAGVKGASKIVAVDIRDVEDEVLLNASLNELENIEVVVGNVLHEEYKLNEKFDWIFINIGGEETAMFMDFIEEHIEKTGKLLVSGLVEWSFDWVKEKVENKGFKLNKKFQTNEWCTAIFSKEGHHHHHH | soluble
AHHHHHHGSNTEKYLAKGLEDVYIDQTNICYIDGKEGKLYYRGYSVEELAELSTFEEVVYLLWWGKLPSLSELENFKKELAKSRGLPKEVIEIMEALPKNTHPMGALRTIISYLGNIDDSGDIPVTPEEVYRIGISVTAKIPTIVANWYRIKNGLEYVPPKEKLSHAANFLYMLHGEEPPKEWEKAMDVALILYAEHEINASTLAVMTVGSTLSDYYSAILAGIGALKGPIHGGAVEEAIKQFMEIGSPEKVEEWFFKALQQKRKIMGAGHRVYKTYDPRARIFKKYASKLGDKKLFEIAERLERLVEEYLSKKGISINVDYWSGLVFYGMKIPIELYTTIFAMGRIAGWTAHLAEYVSHNRIIRPRLQYVGEIGKKYLPIELRR | not soluble
MGHHHHHHSHMACKCDCKNKQCKCGDKCECSGDKCCEKYCCEEASEKKCCPAGCKGDCKCANCHCAEQKQCGDKTHQHQGTAAAH | not soluble
MGSDKIHHHHHHMKISLAPISYCWSKSDVEHFYQQVALSNIDTVYLGETVCSRRRELKFNNYLDLANMLKSHGKHVVLSTMALIEAQSELNELKRAIDNGDFSIEANDMAAVHYAHQAKVPFVCGPTINNYNRTSLNLLHQKGMYRFVMPCELSQQWLNTVINQGDKPAFEIEVLGHGYLPLAHSARCFTAKHYQLPKDKCQTICQRHSKGLLAQTQESQPLLRLNGIQTQSAAQVNLINQIPQMIDMGIDYWRISPNKLTDVAMGSELAHVLAQITEDPFNSKALITKQFNDNKQASIINHHCNGYWLGLPGMDYSLEPNTPAG | not soluble
MGSDKIHHHHHHMELGTPIAEGNTAKIYLVENRVVKVFKGHLPDTEAANEARKQKYAHSCGLSVPEIFDVTEVNGKQAIMMEYINGKTMGEILFENKEQAEYYMSISVGIQHQIHSKVADSLEPMSEKLSRQIKAAPGLSNNQRSALLKRLETLSIDNRLCHGDFHLYNLIKTNNKVTIIDWVDASVGDMCADICRTYLLYSQFSAELADMYLHLSCKKRGLSQADIFQWAPIIAGARLSETVISEKAERLIEIVKHHFPR | not soluble
MAKHAPQLPIEVDSETGVWTTDALPMLYVPRHFFVNNHMGIEEVLGADAYAEILYKAGYKSAWHWCEKEAECHGLEGVAVFEHYMKRLSQRGWGLFEIERINLEEGTAEVRLRHSAFVYVYGKVNRKVDYMFTGWFAGAMDQILAARGSSLRTVAEQVYSGAEDGHEDGLFVVKPL | soluble
MSKEYHIRELIMRLARLDVSESWAEDLNPAQRAVLEYLSRANKFSRSPSHVAAFLGTTRGTISQTFKALLQKNYVTEKRSQSDKRVISFDLTQKGRALLARPRLLISGLESLDSSEQNALLSTLQSTLNSLLEQNKGQPFGLCKECRHFTSSNGGGYCNLLSEKLAPPETEQICHEQDPL | not soluble
MCSLLKLLKISGKSVSDDDPIERYIKCEQCKCKRHWVEQLQRDEMDQMLHRLQFENKQLRKELEWKRGAASTMEIDRSSKRHQERHQSESRGGTLPLRNGRSVVSLKSTQSQNDVMDEAKALRLHKQRLEHRSRILEQQNEQLEMQLQRLKKVIDAQKQQAPLSTNSLLRGSHHQPWSPERARSGSASTLDRGLIVSSRHQEQAEAAGGGAEDSSDEAGGAGGGPRGSSVGQMQNLMTACDDLGKAMESLVVSVVYDSDDEEND | not soluble
MSAAADRLNLTSGHLNAGRKRSSSSVSLKAAEKPFKVTVIGSGNWGTTIAKVVAENCKGYPEVFAPIVQMWVFEEEINGEKLTEIINTRHQNVKYLPGITLPDNLVANPDLIDSVKDVDIIVFNIPHQFLPRICSQLKGHVDSHVRAISCLKGFEVGAKGVQLLSSYITEELGIQCGALSGANIATEVAQEHWSETTVAYHIPKDFRGEGKDVDHKVLKALFHRPYFHVSVIEDVAGISICGALKNVVALGCGFVEGLGWGNNASAAIQRVGLGEIIRFGQMFFPESREETYYQESAGVADLITTCAGGRNVKVARLMATSGKDAWECEKELLNGQSAQGLITCKEVHEWLETCGSVEDFPLFEAVYQIVYNNYPMKNLPDMIEELDLHED | soluble
MSTLADQALHNNNVGPIIRAGDLVEPVIETAEIDNPGKEITVEDRRAYVRIAAEGELILTRKTLEEQLGRPFNMQELEINLASFAGQIQADEDQIRFYFDKTM | soluble
MGHHHHHHSHESVVPARMAEMARCIRERDFPSFAQLTMKDSNQFHATCLDTFPPISYLNAISWRIIHLVHRFNAHHGDTKVAYTFDAGPNAVIFTLDDTVAEFVAAVWHGFPPGSNGD | not soluble
MDADDLRQLAINVSMDDIAASRDATKRLQQLFTPQQIVAMLKDAPSTHALRVLVGEMEAVGNPDVFHLIGGVLEDVFTQPSRESKAVLFAPAAQFLVEFIVRSAAAADTAVASSMSKALHRLIAIAGDSTEAAAFLGPCLDANFHNEQVLRLFDCDAVESAENKTVCGFLEQWTSLLPFMFEATLDAFENDPLLQANYTIASGVACRTVDVPSALRQRTMDILRAKDDSLCFAYVCRFWSIALLRHEANGQRDAAACVSTVMPAAEASERDERATEAIFDLLGSAASTQAGWDAVTRQLPCKTLQVRLSSTSPSLRLSTLNLMLCMLTSPHMNVSFFTKDLLLDAWQTRTSPDDMVRLALWRVANAALLQESLNRMLGAACASFLSSGAHEENVAVRSLKLTAAERLLRHSTLPENVKARLSQVVERGLYPAGSSGVSLIAKD | not soluble
MGSDKIHHHHHHVSVSDAGNFDANDVAVTFGIDKVREAFEQRRSTLPPFAPYDEEPESERPKLKATPFSWRDPATIPPRKWLYGRHLIRKFLSLDIAPGGLGKSSVKIVEALAMTTGRNLLGKDCHEGPLNVWLYNLEDPAEETERRIHAAAQWFEIGPDDVGERLFVDSGREQPICIAEETDGGARIVRPVVEAVIEQLKDRRIDVLSIDPFVSSHAISENDNRAIDMVAKEWSRIADICDCAINLVHHVRKTNGAEVTAESSRGAVSLIGAARSVVVYNRMTKEEGERAGIEPRQLGFYFRTQNDKANLAPPEAADWFRMNNVDLPNGDSVGVACPWQWPDPFDGVSTWHLKEVQKRVSQGRYRADVRSAQWVGHVIANVLDIDLEKKAGRVKDILKQWLKNDMLREVEGTDEKRNVRKFVEVGTWHTD | not soluble
MGSDKIHHHHHHMATTLFIQRGDIAAWLADTAATHTVYAPLRDKTGVRFHRLCAQDAAAQTQALELDRQAQTPPKNVLLPACETLLEFSYAKQEDGSTSLDVQPVMPQGAVLLFGPRPCDARAFTVFDRVYDAGRGKDPYYTARRAATVVASVVCTRPEQSCFCTAVGGAPDDTEGSDILFTPVQDGFIVRPLTQAAEAVLRHPLFTEAAHREEEAADVCAAARAAVPCAPADFTAAPEPVAALFDDMEFWQSVTAKCLSCGACTYLCPTCYCFNITDESNGLEGRRLRTWDNCMSFQFTLEGSGHNPRPTKAHRYRNRIGHKFSYYPRIHDGALSCVGCGRCISSCPVTMDIRRIVHSAMQRAQCATPEQAHE | not soluble
MSLEESAVPGWVLELLREAGYKSLLPIQEKAFPIIYRGLNALVVAPTGSGKTEAALAPLLARLRNGRVASGGGVKVVYVTPLRALNRDLEGRVERLAGLFGYTVQVRHGDTVQSSRRRFLERPPDIVITTPESLALLLTVKRAKEVLKQARAVVVDEIHELMESKRGVELSLNLEKLELMAGRRLQRIGLSATVSRHSLYRAASLLGAGRHVSMVLDTSPKEYDVRVVVVGDEGRFWENSVKAIAELVKGEGGSVLIFANTRSTVETLAFALSRELGEEVPAHHGSLSRHVRERVERDFKEGRVKAIVATSSLELGIDVGRVALVVQFLSPRQVTAMVQRAGRSGHRFGERSRAVIVTIDNVFEVLESHVIAFRAMKGDLEDISIPKKPYDALAHFMAGAAIDSEPPTLEGVYKLAVSTAPYEDLKMEEVEEIARVLSDVRVIRLGPGGKLGRSSRTYSYFYRVSMIPDEKTFKVHDVVSGRDVGEVGERFIQLRLMKASDPREGHHHHHH | not soluble
YATPDNMLSRFGEQDLTLLTEREDSVPGEINLALLEQALSDASAEIDGYIAGRYVLPLTTVPAVLERNCCDIARYFLYGDKAPEQVEKRYAAVVKFLTAVSKGDISLGLATTGETADQSELVISIESAGSVFGRKSAKGF | not soluble
MIEFVYPHTQLVAGVDEVGRGPLVGAVVTAAVILDPARPIAGLNDSKKLSEKRRLALYEEIKEKALSWSLGRAEPHEIDELNILHATMLAMQRAVAGLHIAPEYVLIDGNRCPKLPMPAMAVVKGDSRVPEISAASILAKVTRDAEMAALDIVFPQYGFAQHKGYPTAFHLEKLAEHGATEHHRRSFGPVKRALGLAS | soluble
MSDAHVLKSRLEWGEPAFTILDVRDRSTYNDGHIMGAMAMPIEDLVDRASSSLEKSRDIYVYGAGDEQTSQAVNLLRSAGFEHVSELKGGLAAWKAIGGPTEGIIESRLEHHHHHH | not soluble
MTPDPLAPLDLAFWNIESAEHPMHLGALGVFEADSPTAGALAADLLAARAPAVPGLRMRIRDTWQPPMALRRPFAFGGATREPDPRFDPLDHVRLHAPATDFHARAGRLMERPLERGRPPWEAHVLPGADGGSFAVLFKFHHALADGLRALTLAAGVLDPMDLPAPRPRPEQPPRGLLPDVRALPDRLRGALSDAGRALDIGAAAALSTLDVRSSPALTAASSGTRRTAGVSVDLDDVHHVRKTTGGTVNDVLIAVVAGALRRWLDERGDGSEGVAPRALIPVSRRRPRSAHPQGNRLSGYLMRLPVGDPDPLARLGTVRAAMDRNKDAGPGRGAGAVALLADHVPALGHRLGGPLVSGAARLWFDLLVTSVPLPSLGLRLGGHPLTEVYPLAPLARGHSLAVAVSTYRGRVHYGLLADAKAVPDLDRLAVAVAEEVETLLTACRPLEHHHHHH | soluble
TEKKYIVALDQGTTSSRAVVMDHDANIISVSQREFEQIYPKPGWVEHDPMEIWATQSSTLVEVLAKADISSDQIAAIGITNQRETTIVWEKETGKPIYNAIVWQCRRTAEICEHLKRDGLEDYIRSNTGLVIDPYFSGTKVKWILDHVEGSRERARRGELLFGTVDTWLIWKMTQGRVHVTDYTNASRTMLFNIHTLDWDDKMLEVLDIPREMLPEVRRSSEVYGQTNIDGKGGTRIPISGIAGDQQAALFGQLCVKEGMAKNTYGTGCFMLMNTGEKAVKSENGLLTTIACGPTGEVNYALEGAVFMAGASIQWLRDEMKLINDAYDSEYFATKVQNTNGVYVVPAFTGLGAPYWDPYARGAIFGLTRGVNANHIIRATLESIAYQTRDVLEAMQADSGIRLHALRVDGGAVANNFLMQFQSDILGTRVERPEVREVTALGAAYLAGLAVGFWQNLDELQEKAVIEREFRPGIETTERNYRYAGWKKAVKRAMAWEEHDQLYTRASQPELAPEDPEDLEHHHHHH | soluble
MSLIRKFSSKDLDAVEEIEREAFKTPYPTSLILGFWSMYPNCFYVAEIDGRVVGYILGSMDWGNGHIISLAVKKECRGLGIGTALLKTLENYYFNIANCNYIVLEVRVSNVLARRFYYRMGYRDRKLLPKYYEDGEDAILMIKKKPNAKGPLIITLWEGHHHHHH | soluble

— the DeepSol protein solubility set
